Substrate in this data set: O=c1ccc2nc3ccc(O[C@H]4O[C@H](CO)[C@@H](O)[C@H](O)[C@@H]4O)cc3oc-2c1
Briefly: continuous fluorometric kinetic assay of purified enzyme. The data set is classed as biochemical, Drosophila melanogaster.

B1: Golgi α-mannosidase II (dGMII) (Drosophila melanogaster) (protein)
chain: DDPIRPPLKVARSPRPGQCQDVVQDVPNVDVQMLELYDRMSFKDIDGGVWKQGWNIKYDPLKYNAHHKLKVFVVPHSHNDPGWIQTFEEYYQHDTKHILSNALRHLHDNPEMKFIWAEISYFARFYHDLGENKKLQMKSIVKNGQLEFVTGGWVMPDEANSHWRNVLLQLTEGQTWLKQFMNVTPTASWAIDPFGHSPTMPYILQKSGFKNMLIQRTHYSVKKELAQQRQLEFLWRQIWDNKGDTALFTHMMPFYSYDIPHTCGPDPKVCCQFDFKRMGSFGLSCPWKVPPRTISDQNVAARSDLLVDQWKKKAELYRTNVLLIPLGDDFRFKQNTEWDVQRVNYERLFEHINSQAHFNVQAQFGTLQEYFDAVHQAERAGQAEFPTLSGDFFTYADRSDNYWSGYYTSRPYHKRMDRVLMHYVRAAEMLSAWHSWDGMARIEERLEQARRELSLFQHHDGITGTAKTHVVVDYEQRMQEALKACQMVMQQSVYRLLTKPSIYSPDFSFSYFTLDDSRWPGSGVEDSRTTIILGEDILPSKHVVMHNTLPHWREQLVDFYVSSPFVSVTDLANNPVEAQVSPVWSWHHDTLTKTIHPQGSTTKYRIIFKARVPPMGLATYVLTISDSKPEHTSYASNLLLRKNPTSLPLGQYPEDVKFGDPREISLRVGNGPTLAFSEQGLLKSIQLTQDSPHVPVHFKFLKYGVRSHGDRSGAYLFLPNGPASPVELGQPVVLVTKGKLESSVSVGLPSVVHQTIMRGGAPEIRNLVDIGSLDNTEIVMRLETHIDSGDIFYTDLNGLQFIKRRRLDKLPLQANYYPIPSGMFIEDANTRLTLLTGQPLGGSSLASGELEIMQDRRLASDDERGLGQGVLDNKPVLHIYRLVLEKVNNCVRPSELHPAGYLTSAAHKASQSLLDPLDKFIFAENEWIGAQGQFGGDHPSAREDLDVSVMRRLTKSSAKTQRVGYVLHRTNLMQCGTPEEHTQKLDVCHLLPNVARCERTTLTFLQNLEHLDGMVAPEVCPMETAAYVSSHSS
With B1, the Km is recorded as 200 (±73) μM.

(Values after PMC2824011.)
